Data as given in publication PMC8333309, “Mechanism of LolCDE as a molecular extruder of bacterial triacylated lipoproteins” (Nature Communications, 2021).

Substrate: Nc1ncnc2c1ncn2[C@@H]1O[C@H](COP(=O)(O)OP(=O)(O)OP(=O)(O)O)[C@@H](O)[C@H]1O
Test: colorimetric phosphate-release ATPase assay
Type: biochemical, Escherichia coli
Conditions: LolCDE in POPG nanodiscs, MgCl2, 25 mM Tris pH 8, 150 mM NaCl, 37 °C, basal activity, no lipoprotein added

B1: LolCDE (Escherichia coli K-12) (protein)
chain: MNKILLQCDNLCKRYQEGSVQTDVLHNVSFSVGEGEMMAIVGSSGSGKSTLLHLLGGLDTPTSGDVIFNGQPMSKLSSAAKAELRNQKLGFIYQFHHLLPDFTALENVAMPLLIGKKKPAEINSRALEMLKAVGLDHRANHRPSELSGGERQRVAIARALVNNPRLVLADEPTGNLDARNADSIFQLLGELNRLQGTAFLVVTHDLQLAKRMSRQLEMRDGRLTAELSLMGAE
notes: co-expressed in E. coli BL21(DE3); purified in DDM, reconstituted into MSP1D1/POPG nanodiscs; co-purifies with lipoprotein; with Lipoprotein-releasing system transmembrane protein LolC; Lipoprotein-releasing system transmembrane protein LolE
Km: 190 ± 50 µM
